Laboratory results as given in the RNAGym collection of RNA variant scans (doi:10.1073/pnas.2313332121).
Variants at the floor of the assay were thinned out.

B1: TPR 5TU (parent)
chain: GGAUCUUCUCGAUCUAACAAAAAAGACAAAUCUGCCACAAAGCUUGAGAGCAUCUUCGGAUGCAGAGGCGGCAGCCUUCGGUGGCGCGAUAGCGCCAACGUUCUCAACUAUGACACGCAAAACGCGUGCUCCGUUGAAUGGAGUUUAUCAUG

Variants of: B1
Assay: polymerase ribozyme fitness, log enrichment relative to wild type (log ratio); higher = more active; in vitro selection for triplet polymerase activity
Outline: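 In triplicate, a single round of in vitro selection was run on each mutant library, PCR-built and transcribed, covering one subunit of a heterodimeric triplet polymerase ribozyme. Frozen incubation at −7 °C followed annealing with a biotinylated primer, partner subunit and triplets, and extended constructs were then gel-excised, streptavidin-captured and taken through RT-PCR. Fitness is the logarithm of genotype enrichment over wild-type enrichment, from inverse-variance-weighted replicate averages of Illumina-sequenced inputs and outputs. […] only genotypes with ≥10 input reads and ≥1 read per output were kept.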

Point of comparison: GGAUCUUCUCGAUCUAACAAAAAAGACAAAUCUGCCACAAAGCUUGAGAGCAUCUUCGGAUGCAGAGGCGGCAGCCUUCGGUGGCGCGAUAGCGCAAACGUUCUCAACUAUGACACGCAAAACGAGUGCUCCGUUGAAUGGAGUUUAUCAUG, “polymerase ribozyme fitness (log ratio)” value -0.718. Against it:
- GGAUCUUCUCGAUCUAACAAAAACGAGAUAUCUGCCACAAAGCUUGAGAGCAUCUUUGGAUGCAGAGGCGGCAGCCUUCGGUGGCCCGAUAGCGCCAACGUUAUCAACUAUGACACGCAAAACGCGUGCUCCGUUGAAUGGAGUUUAUCAUG — lower, ≤ -4.2
- GGAUCUUCUCGAUCUAACAAAAAAGACAAAUCUGCCACAAAGCUUGAGAGCAUCUUCGGAUGCAGAGGCGGCAGCCUUCGAUGGCGCGAUAGGGCCAACGUUCUCAACUAUGACACGCAAAACGCGUGCUCCGUUGAAUGGAGUUUAUCAUG — lower, -3.86
- GGAUCUUCCCGAUCUAACAAAAUAGACAAAUCUGCCACAAAGCUUGAGAGCAUCUUCUGAUGCAGAGGCGGCUGCCUUAGGUCGCACGAUAGCGCCAACGUUCUCAGCUAUGACACGCAAAACGCGUGCUCCGUUGAAUGCAGUUUAUCAUG — lower, ≤ -4.2
- GGAUCUUCUCGAUCUAACAAAAAAGACAAAUGUGCCACAAAGCUUGAGAGCAUCUUCGGAUGCAGAGGCGGCAGCCUUCGGUGGCGCGAUAGCACCAACGUUCUCAACUAUGACACGCAAAACGCGUGCUCCGUUGAAUGGAGUUUAUCAUG — lower, -3.8
- GGAUCUUCUCGAUCUAACAAAAAAGACAAAUCUGCCACAAACCUUGAGAGCAUCUUCGGGUGCAGAGGCGGCAGGCUUCGGUGGCGCGAUAGCGCCAACGUUCUUAACUAUGACACGCAAAGCGCGUGCUCCGUUGAAUGGAGUUUAUCAUG — lower, -4.18
- GGAUCUUCUCGAUCUAACAAAAAAGACAAAUCUGCCACAAAGCUUGAGAGCAUCAUCGGAUGCAGAGGCGGCAGCCUUCGGUGUCGCGAUAGCGCCAACGUUCUCAACUAUGACACGCAAAACGCGUUCUCCGCUGAAUGGAGUUUAUCAUG — lower, -4.17
- GGAUCUUCUCGAUCUAACAAAAAAGAGAAAUCUGCCACACAGCUUGAAAGCAUCUUCGGAUGAAGAGGCUGCAGCCUUCGAUGGCGCGAUAACGCCAACGUUCUCAACUAUGACACGCAAAACGCGUGCUCCGUUGAAUGGAGUUUAUCAUG — lower, ≤ -4.2
- GGAUCUUCUCGAUCUAACAUAAAAGACAAAUCUGCCACAAAGCUUGAGAGCAUCAUCGGAUGCAGAGUCGGCAGCCUUCGGUGGGGCGAUAGCGCCAACGUUCUUAACUAUGACACGCAAAACACGUGCUCCGUUGAAUCGAGUUUAUCAUG — lower, ≤ -4.2
- GGAUCUUCUCGAUCUAACAAAAAAGACACAUCUGCCACUAAGCUUGAGAGCAUCUUCGGAUGCAGAGGCGGCAGCCUUCGGUGGCGCGAUAGCGCAAACGUUCUCAACUAUGACACGCAAAACGCGUGCUCCGUUGAAUGGAGUUUAUCAUG — lower, ≤ -4.2
- GGAUCUUCUCGAUCUAUCAAAAAAGACAAAUCUGCCACAAAACUUGAGAGCAUCUUCGGAUGCAGAGGCGGCAGCCUUCGCUGGCUCGAUACCGCCAACGUUCUCAACUAUGACACGCAAAACGCGUGCUCCGUUGAAUGGACUUUAUCAUG — lower, ≤ -4.2
- GGGUCUUCUCGAUCUAACAAAAAAGACAAAUCUGCCACAAAGCUUCAGAGCAUAUUCGGAUGCAGAGGCGGCAGCCUUCGGUGGCGCGAUAGCGCCAACGUUCUCAACUAUGACACGCAAAACGCGUGCUCCGUUGAAUGGAGUUCAUCAUG — lower, -3.68
- GGAUCUUCUAGAUCUAACAAAAAAGACAAAUCUGCCACAAAGCUUGAGAGCAUCUGGGAAUGCAGAGGCGGCAGCCUUUGGUCGCGCGAUAGCGCCAAGGUUCUCAACUAUGACACGCAAAACGCGUGCUCCGUUGAAUGGAGUUUAUCAUG — lower, ≤ -4.2
- GGAUCUUCUCGAUCUAACAAAAAAGACAAAUUUGCCACAAAGCUUGAGAGCAUCUUCGGAUGCAGAGGCGGCAGCCUUCGGUGGCGCGUUAGCGCCAACGUUCUCAACUAUGACACGCAAAACGCGUGCUCCGUUGAAUGGAGUUUAUCAUG — lower, -2.63
- GGAUCUUCUCGAUCUAACAAAAAAGACAAAUCUGCCACAAAGCUUGAGAGCAUCUUCGGAUGCAGGGGCGGCAGCCUUCGUUGGCGGGAUAGCGCCAAUGUUCGCAACUAUGACACGCAAAACGCGUGCUCCGAUGAAUGGUGUUUAUCAUG — lower, ≤ -4.2
- GGAUCUUCUCGAUCUAACAAAAAAGACAAAUCUGCCACAAAGCUUGAGAGCAUGUUCGGAUGCAGAGGCGGCAGCCUUCGGUGGCGCGAUAGCGCCAACGUUCUCAACUAUGACACGCAAAACGCGUGCUCCGUUGAAUGGUGUUUAUCAUG — lower, -1.98
- GGAUCUUCUCGAUCUAACAAAAAAGACAAAUCUGCCACAAAGCUUGAGAGCAUCUUCGGAUGCAGAGGCGGCAGCCUUCGGUGGCGCGAUACCGCCAACGUUCUCAACUAUGACUCGCAAAACGCGUGCUCCGUUGAAUGGAGUUUAUCAUG — lower, -1.86
- GGAUCUUCUCGAUCUAACAAAAAAGAUAAAUCUGCCAUAAAGCUUGAGAGCUUCUUCGGAUGCAGAGGCGGCAGCCUUCGGUGGGGCUAUAGCGCCAACGUGCUCAACUAUGACACGCAAAACGCGUGCUCCGUUGAAUGGAGUUUAUCAUG — lower, ≤ -4.2
- GGAUCUGCUCGAUCUAACAAAAAAGACAAAUCUGCCACAAAGCUUGAGAGCAACUUCGGAUGCAGAGGCGGCAGCCUUCGGUGGCGCGAUAGCGCCAACGUUCUCAACUAUGACACGCAAAACGCGUGCUCCGUUGAAUGGAGUUUGUCAUG — lower, ≤ -4.2
